Reference: patent US20250297215A1, “METHOD FOR PRODUCING MILK LIKE PRODUCTS” (SOCIETE DES PRODUITS NESTLE S.A., priority 2021, published 2025)

Key:
[1] = test system: human-induced pluripotent stem cell (hiPSC) line 603; assay: Flow cytometry quantification of mammary gland progenitor markers after BMP4 treatment, 3D-organoid setting; format: cell-based; settings: 20 ng/ml BMP4, day 0 to day 3, flow cytometry
Protocol: (§1) Methods: The human-induced pluripotent stem cell (hiPSC) line 603 was purchased from Fujifilm Cellular Dynamics, Inc (FCDI) and used for the 3D-differentiaion of mammary gland progenitors. Briefly, 5.5 million dissociated iPSCs were plated in the 6 well-plates (ultra-low attachment) containing 4.5 mL aggregation media using a planar shaker platform (set at 95 RPM). BMP4 (314-BP-050, Bio-Techne AG) at different concentrations was added to the culture media between day 0 and day 3.

[2] = test system: human-induced pluripotent stem cell (hiPSC) line 603; assay: Nanostring RNA expression of lineage markers after BMP4 treatment, 3D-organoid setting; format: cell-based
Protocol: as §1
Results: iPSC cells were tested with different concentrations of BMP4 to induce non-neural ectodermal differentiation (FIG. 6a, b). […] Expression of human TFAP2A and TFAP2C (AP2 Gamma) as predominant non-neural ectodermal markers were increased at day 10 of differentiation using Nanostring analysis compared to the control sample (FIG. 6g-h). Moreover, expression levels of human specific neural ectoderm markers, such as paired box gene 6 (PAX6), orthodenticle homeobox 2 (OTX2) and SRY-box transcription factor 11 (SOX11) were decreased during differentiation (FIG. 6i-k).

iPSC cells = assay: RNA expression of ESRRA, KRT14 and MUC1 at end-stage of 3D-mammary gland differentiation; format: cell-based, human; settings: day 30, 33 and 35, compared to the control sample
Protocol: The effect of BMP4 at the end-stage of 3D-mammary gland differentiation of iPSC cells was assessed using estrogen related receptor alpha (ESRRA), Keratin 14 (KRT14) and MUC1 for their expression profiles.

[3] = test system: iPSCs derived mammary gland organoids; assay: Flow cytometry of progenitor markers, BMP4 and RA single or combined, 42 days and 31 days protocols; format: cell-based, human; settings: 20 ng/ml BMP4, 1 μM RA, single or combination, compared to the control condition
Excerpt: In order to generate milk bioactives that closely resemble those found in human breast milk, different methods using bone morphogenetic protein 4 (BMP4) and retinoic acid (RA) in 42 days and 31 days as a shortened time-course protocol were established in a 3D-platform using iPSCs derived mammary gland organoids as a biomimetic model of the human mammary gland (FIG. 9).

[4] = test system: iPS-derived mammary-gland cells; assay: LC-MS/MS targeted proteomic analysis of osteopontin protein secretion; format: cell-based, human; settings: also detected with control differentiation method
Excerpt: Human osteopontin peptides—GDSVVYGLR and -YPDAVATWLNPDPSQK were specifically detected in the cell culture supernatant by LC-MS/MS (FIG. 10).
Osteopontin protein secretion was detected in the media of cultures of iPS-derived mammary-gland cells using control differentiation method, or with bone morphogenetic protein 4 (BMP4), retinoic acid (RA) and in the combination of the two factors.

B1: BMP4: bone morphogenetic protein 4 (314-BP-050, Bio-Techne AG), added to the culture media (protein, UniProt P12644 293-408, looked up)
Bone morphogenetic protein 4: SPKHHSQRARKKNKNCRRHSLYVDFSDVGWNDWIVAPPGYQAFYCHGDCPFPLADHLNSTNHAIVQTLVNSVNSSIPKACCVPTELSAISMLYLDEYDKVVLKNYQEMVVEGCGCR
With B1 the “expression of mammary gland progenitor markers EpCAM (CD326), CD49f, MUC1 (CD227) and GATA3” value [1] was “significantly induced”, the “expression of luminal marker KRT18 and osteopontin (OPN)” value ([2]; RNA expression level) was “can induce the expression” and the “expression of human TFAP2A and TFAP2C (non-neural ectodermal markers)” value ([2]; day 10 of differentiation, compared to the control sample) was “increased”. The “expression levels of neural ectoderm markers PAX6, OTX2 and SOX11” value ([2]; during differentiation) was “decreased”, the “RNA expression levels of ESRRA, KRT14 and MUC1” value (iPSC cells) was “increased” and the “expression of mammary gland progenitor markers EpCAM, CD49f, MUC1 and GATA3 (induced or maintained)” value [3] was “can induce the expression”. For the same molecule, the “osteopontin protein secretion in culture media” value [4] was “detected”.
